From paper PMC6589570 (Molecular Biology of the Cell, 2019)

Biological target: T1, cytosolic domain of SEC12 (PREB), his-tagged (UniProt Q9HCU5 1-388)
T1 sequence (looked up): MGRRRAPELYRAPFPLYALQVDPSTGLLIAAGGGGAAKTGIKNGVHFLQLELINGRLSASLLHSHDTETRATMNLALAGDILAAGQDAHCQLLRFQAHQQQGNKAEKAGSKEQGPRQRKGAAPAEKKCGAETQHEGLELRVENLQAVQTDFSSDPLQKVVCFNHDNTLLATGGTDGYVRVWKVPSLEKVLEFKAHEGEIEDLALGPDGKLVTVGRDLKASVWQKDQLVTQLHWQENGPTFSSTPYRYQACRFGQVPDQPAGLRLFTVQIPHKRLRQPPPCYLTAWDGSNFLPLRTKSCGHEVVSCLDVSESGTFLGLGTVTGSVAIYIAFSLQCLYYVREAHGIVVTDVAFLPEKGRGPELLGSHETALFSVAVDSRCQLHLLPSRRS
Test: liposome flotation

fold recruitment to liposomes with SEC12 against without SEC12: ~3.5 fold
B1: fatty-acid binding protein 5 (FABP5), rat (natural protein, UniProt P55053 1-135, looked up)
chain: MASLKDLEGKWRLVESHGFEDYMKELGVGLALRKMGAMAKPDCIITLDGNNLTVKTESTVKTTVFSCTLGEKFDETTADGRKTETVCTFTDGALVQHQKWEGKESTITRKLKDGKMVVECVMNNAICTRVYEKVQ
